The values below come from article PMC3750474.

As usually defined, the Kd is the free concentration of one partner at which half of the binding sites on the other are occupied at equilibrium, for simple one-to-one binding.

In experiment [1] the target is HIV-1 capsid CAN (Human immunodeficiency virus 1) (UniProt O93182). As to conditions: cited from earlier work.
For experiment [2], the target named is HIV-1 M-group (NL4-3) N-terminal capsid domain (HIV-1 M-group (NL4-3)).
The target is the same in experiment [3]. As to the kind of experiment: ITC; MicroCal ITC200, 15°C, 50 mM potassium phosphate pH 7.4, 100 mM NaCl, 1 mM DTT; NUP358Cyp (typical 2.5 mM) in the syringe, capsid domain (typical 0.2 mM) in the cell; one set of binding sites model.
Experiment [4] deals with HIV-1 M-group (NL4-3) N-terminal capsid domain. As to the kind of experiment: ITC. A general note: In ITC the heat of successive injections is recorded.

For NUP358 Cyp (from UniProt P49792), in experiment [1], the Kd was 200 µM.

As for “cyclophilin domain from human NUP358 (from UniProt P49792 3057-3224) (domain or fragment)”, the rate of cis-trans isomerization of the capsid G89-P90 bond catalysed by NUP358Cyp (NMR ZZ-exchange; 430 μM CA^N, 35 μM NUP358Cyp, 298 K) in experiment [2] was 12.1 s⁻¹. The substance further showed a dissociation constant Kd in experiment [3] of 94 µM.

In experiment [4], “cyclophilin domain from human NUP358 (from UniProt P49792) V113F” gave an other: N (stoichiometry) of 0.74, an other: ΔH of -10.8 kcal/mol and an other: ΔS ((cal/mol)/deg) of -16.5.

In experiment [4], “cyclophilin domain from human NUP358 (from UniProt P49792) V61M; V113F” yielded an other: N (stoichiometry) of 1.43, an other: ΔH of -7.45 kcal/mol and an other: ΔS ((cal/mol)/deg) of -5.26.
